Laboratory results reported in article PMC5633906, “Introducing site-specific cysteines into nanobodies for mercury labelling allows de novo phasing of their crystal structures” (Acta Crystallographica. Section D, Structural Biology, 2017).

Target: T1, human complement component C5 (Homo sapiens, UniProt P01031)
T1 construct: complement C5 beta chain, human, cut product of the C5 precursor; complement C5 alpha chain, human, cut product of the C5 precursor; also called Human C5; C5 antigen; source: purified as described previously (Laursen et al., 2010; Schatz-Jakobsen et al., 2016)
Assay: BLI; Octet RED; histidine-tagged Nbs immobilised on Anti-Penta-HIS biosensors at 2.5 µg/ml; C5 62.5 to 2000 nM in PBS; association 700 s, dissociation 1800 s; global fit
Conditions: both partners purified

Binder | Kd [nM]
native Nb36 nanobody (VHH, Selected by phage display from a llama immunised with human C5; construct in pET-22b(+) with an N-terminal PelB signal for secretion into the periplasm; also called nonmodified Nb36; Nb36-Nat1; source: E. coli LOBSTR, purified (Ni Sepharose, Superdex 75); not shown: 6xHis, C-terminal, kept) VHH: QVQLVESGGGLVQAGGSLRLSCVVSGSAVSDYAMGWYRQAPGKQRELVAAIYNSGRTNYVDSVKGRFTISKDNAKKTVYLQMNSLKPEDTADYFCNLLGATTMSNAVWGQGTQVTVSS | ~86
PCMB-labelled Nb36-C85 (VHH, as the VHH of m1 with Ser85Cys (position 82b in the Kabat nomenclature); Construct in pET-22b(+) with an N-terminal PelB signal for secretion into the periplasm; In the crystals the benzoate moiety of PCMB was not seen; also called Nb36 Ser85Cys labelled with PCMB; Hg-labelled Nb36-C85; source: E. coli LOBSTR, purified (Ni Sepharose, Superdex 75), labelled with PCMB; not shown: 6xHis, C-terminal, …) VHH: QVQLVESGGGLVQAGGSLRLSCVVSGSAVSDYAMGWYRQAPGKQRELVAAIYNSGRTNYVDSVKGRFTISKDNAKKTVYLQMNCLKPEDTADYFCNLLGATTMSNAVWGQGTQVTVSS | ~37
